B1: Rho-related BTB domain-containing protein 2 (Homo sapiens), Q9BYZ6-2 (parent)
chain: MQAWRKGPDGPQKTSSDSMSRLMDSDMDYERPNVETIKCVVVGDNAVGKTRLICARACNATLTQYQLLATHVPTVWAIDQYRVCQEVLERSRDVVDDVSVSLRLWDTFGDHHKDRRFAYGRSDVVVLCFSIANPNSLHHVKTMWYPEIKHFCPRAPVILVGCQLDLRYADLEAVNRARRPLARPIKPNEILPPEKGREVAKELGIPYYETSVVAQFGIKDVFDNAIRAALISRRHLQFWKSHLRNVQRPLLQAPFLPPKPPPPIIVVPDPPSSSEECPAHLLEDPLCADVILVLQERVRIFAHKIYLSTSSSKFYDLFLMDLSEGELGGPSEPGGTHPEDHQGHSDQHHHHHHHHHGRDFLLRAASFDVCESVDEAGGSGPAGLRASTSDGILRGNGTGYLPGRGRVLSSWSRAFVSIQEEMAEDPLTYKSRLMVVVKMDSSIQPGPFRAVLKYLYTGELDENERDLMHIAHIAELLEVFDLRMMVANILNNEAFMNQEITKAFHVRRTNRVKECLAKGTFSDVTFILDDGTISAHKPLLISSCDWMAAMFGGPFVESSTREVVFPYTSKSCMRAVLEYLYTGMFTSSPDLDDMKLIILANRLCLPHLVALTEQYTVTGLMEATQMMVDIDGDVLVFLELAQFHCAYQLADWCLHHICTNYNNVCRKFPRDMKAMSPENQEYFEKHRWPPVWYLKEEDHYQRARKEREKEDYLHLKRQPKRRWLFWNSPSSPSSSAASSSSPSSSSAVV

Variants of: B1
Details: with cul3_human CUL3, Q13618

| Variant | effect of a mutation on the interaction |
| --- | --- |
| A474G | with no effect |
| R483H | with no effect |
| R511Q | with no effect |

— IntAct's records for PubMed 29276004
